Experimental data published in US20130012427A1.

How the values were obtained:
Assay in all cases: cell-based or functional assay
[1] = target: human amylin 3(a) receptor (human calcitonin receptor co-expressed with RAMP-3) (human) (UniProt P30988)
[2] = target: human amylin 3(a) receptor (human calcitonin receptor with RAMP-3) (human) (UniProt P30988)
[3] = target: human calcitonin (a) receptor (human) (UniProt P30988)
Sequence of human calcitonin (a) receptor (human) (P30988 25-474): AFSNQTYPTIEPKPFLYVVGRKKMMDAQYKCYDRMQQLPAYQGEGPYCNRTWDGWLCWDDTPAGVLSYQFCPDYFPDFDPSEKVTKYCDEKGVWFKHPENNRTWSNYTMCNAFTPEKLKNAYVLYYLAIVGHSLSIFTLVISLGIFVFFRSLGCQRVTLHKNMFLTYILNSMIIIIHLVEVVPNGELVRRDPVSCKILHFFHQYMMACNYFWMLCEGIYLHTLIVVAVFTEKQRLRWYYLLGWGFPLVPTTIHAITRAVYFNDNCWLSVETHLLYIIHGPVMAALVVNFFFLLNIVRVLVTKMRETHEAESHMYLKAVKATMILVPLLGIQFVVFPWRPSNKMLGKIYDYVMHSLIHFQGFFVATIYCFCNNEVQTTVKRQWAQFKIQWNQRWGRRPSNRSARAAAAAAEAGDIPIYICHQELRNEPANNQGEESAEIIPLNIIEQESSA

Sequence of human amylin 3(a) receptor (human calcitonin receptor co-expressed with RAMP-3) (human) (P30988 25-474, chain 1 of 2): as the sequence (P30988 25-474) above
Sequence of human amylin 3(a) receptor (human calcitonin receptor co-expressed with RAMP-3) (human) (O60896 24-148, chain 2 of 2, further chain): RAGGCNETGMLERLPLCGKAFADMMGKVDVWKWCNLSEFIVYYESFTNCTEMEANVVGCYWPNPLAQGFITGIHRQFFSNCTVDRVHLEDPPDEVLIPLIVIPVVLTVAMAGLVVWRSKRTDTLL
Sequence of human amylin 3(a) receptor (human calcitonin receptor with RAMP-3) (human) (P30988 25-474, chain 1 of 2): as the sequence (P30988 25-474) above
Sequence of human amylin 3(a) receptor (human calcitonin receptor with RAMP-3) (human) (O60896 24-148, chain 2 of 2, further chain): as the sequence (O60896 24-148, chain 2 of 2, further chain) above

N-alpha-(19-carboxynonadecanoyl)-Glu-Glu-Arg-[Glu1,Pro37]-pramlintide (peptide)
Amylin receptor human EC50 (pM) [1]: 45 pM | Amylin receptor human EC50 (pM) [2]: 45 pM | CTa receptor human EC50 (pM) [3]: 61.5 pM
